Laboratory results reported in paper PMC8465892, “CDR1 Composition Can Affect Nanobody Recombinant Expression Yields” (Biomolecules, 2021).
Substitutions are numbered along the chain they refer to. Names and notes keep the numbering of the source.

B1: A10 wt (VHH)
VHH: EVQLQASGGGFVQPGGSLRLSCAASGATSNISNMGWFRQAPGKEREFVSAISRAESRPLYYADSVKGRFTISRDNSKNTVYLQMNSLRAEDTATYYCAYMPLVRHKAYWGQGTQVTVSS
notes: anti-Her2 nanobody isolated by panning a synthetic library; also called anti-Her2 ectodomain nanobody A10; source: pET-derived vectors, produced as previously reported [17]
B2: A10 mutKG (VHH)
VHH: EVQLQASGGGFVQPGGSLRLSCAASGAGTSNISNMGWFRQAPGKEREFVSAISRAESRPLYYADSVKGRFTISRDNSKNTVYLQMNSLRAEDTATYYCAYMPLVRHKAYWGQGTQVTVSS
notes: A10 wt with a glycine inserted after A29 in CDR1 (G29a); also called G29a; source: gene synthetized by Twist Bioscience, pET-derived vectors, produced as previously reported [17]
B3: A10 mutG0 (VHH)
VHH: B2 VHH with G28T, T29S, S30G
notes: A10 wt with a glycine inserted after S31 in CDR1 (G31a); also called G31a; source: gene synthetized by Twist Bioscience, pET-derived vectors, produced as previously reported [17]
B4: A10 mutKG.1 (VHH)
VHH: B2 VHH with A6E, F11L, S50A, R89K, A90P
notes: A10 mutKG (G29a) with five framework mutations printed as Q8E, F13L, S51A, R90K, A91P; source: gene synthetized by Doulix, pET-derived vectors, produced as previously reported [17]

molecular target: T1, Her2 ectodomain-Fc (UniProt P04626 23-652); assay: SPR; Biacore T200, 25 °C; Her2 ectodomain-Fc immobilized by amine-coupling on a CM5 chip at 1180 RU; nanobodies injected at 30 µL/min in 20 mM Hepes, 150 mM NaCl, 3 mM EDTA, 0.005% Tween 20, pH 7.4; eight concentrations between 250 and 3.5 nM; 1:1 Langmuir model; details: both partners purified
T1 construct: Her2 ectodomain

Binder	Kd [nM]
B1	4.9
B2	34.7
B3	23.5
B4	9.9
